Measurements reported in the supplement of paper PMC9732359.
± gives the uncertainty stated by the source.

Test: protein stability index of a GFP-peptide fusion (yeast GPS) (PSI 1-4); higher = more stable; sorted into four equal gates, so the index is relative within each strain
Summary of the method: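 The protein stability index combines read frequencies across sorting gates, each weighted by its gate number and then summed. To obtain those frequencies, a pooled yeast library of GFP fusions to tiled 17-residue yeast protein peptides, on a plasmid also expressing Cherry, was grown to mid-log phase in leucine-free medium. The cells were sorted into four equal gates by GFP/Cherry ratio before plasmid amplification by PCR and Illumina sequencing.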

Sequence | protein stability index (doa10∆) | protein stability index (pdr5∆) | protein stability index (san1∆) | protein stability index (ubr1∆)
KIADLVRIPPDQFHRDT [RPC25] | 2.18 ± 0.063 | 2.52 ± 0.062 | 2.45 ± 0.085 | 2.93 ± 0.088
KIAERSLLLKNYLNDMH [SKP1] | 2.55 ± 0.12 | 2.54 ± 0.07 | 1.81 ± 0.17 | 1.78 ± 0.067
KIALREYINNCKKNTKK [POP4] | – | 2.86 ± 0.27 | 3.01 ± 0.087 | 2.89 ± 0.15
KIAVLNNDKREIQEELE [SMC1] | 3.23 ± 0.067 | 3.37 ± 0.056 | 3.32 ± 0.039 | 3.25 ± 0.047
KIFIKDPKFVNSLLAKL [YML103C/NUP188] | 2.25 ± 0.14 | 2.25 ± 0.063 | 1.72 ± 0.1 | 2.39 ± 0.068
KIFTPNLLQISAAELER [SNF5] | 1.77 ± 0.064 | 1.97 ± 0.061 | 1.76 ± 0.1 | 1.33 ± 0.066
KIGPLGLSPKKVGEDIA [RPL12A] | 3.3 ± 0.16 | 3.2 ± 0.18 | 3.27 ± 0.2 | 3.38 ± 0.24
KIINKPNELSQILTVDP [RPC82] | 3.13 ± 0.28 | 2.56 ± 0.13 | 3.01 ± 0.075 | 2.78 ± 0.09
KILQKRSISKELIVSEE [SIR3] | 2.37 ± 0.064 | 2.52 ± 0.075 | 2.28 ± 0.066 | 2.37 ± 0.052
KIMNVTTDSLTKVLQAD [YMR129W/POM152] | 3.25 ± 0.068 | 3.05 ± 0.068 | 3.12 ± 0.04 | 3.23 ± 0.064
KIPLFTFAKSKNYSRPS [SIR4] | 2.39 ± 0.092 | 2.12 ± 0.081 | 1.74 ± 0.1 | 2.42 ± 0.064
KIQQHNTILNSSSDFRL [BRR2] | 2.71 ± 0.06 | 2.89 ± 0.067 | 2.89 ± 0.041 | 2.78 ± 0.046
KIREDHINKIPSNSTTT [SRB8] | 2.63 ± 0.051 | 2.71 ± 0.044 | 2.54 ± 0.056 | 2.81 ± 0.034
KIRELEAELSSTKVENS [YIL149C/MLP2] | 2.79 ± 0.13 | 3.12 ± 0.099 | 3.23 ± 0.089 | 3.12 ± 0.064
KIVDKDGIRQVDDFQAQ [PRE1] | 2.9 ± 0.14 | 2.9 ± 0.11 | – | –
KIVYIAPLKALVQEQVR [BRR2] | 1.4 ± 0.045 | 1.59 ± 0.044 | 1.41 ± 0.089 | 1.3 ± 0.051
KKACIIFFDEIDAVGGA [RPT1] | 2.39 ± 0.052 | 2.67 ± 0.054 | 2.81 ± 0.055 | 2.73 ± 0.038
KKASKVTVDADIDDILK [ISW2] | 2.75 ± 0.081 | 3.18 ± 0.065 | 3 ± 0.058 | 3.1 ± 0.046
KKDRATGDADEPELRVL [RPO21] | 3.53 ± 0.11 | 3.48 ± 0.074 | 3.39 ± 0.06 | 3.43 ± 0.046
KKEANLFPEQQTKEIKT [RPL6B] | 2.62 ± 0.08 | 3.25 ± 0.074 | 2.56 ± 0.082 | 3.23 ± 0.076
KKEELVEIAYHKCDELI [RPO31] | 3.13 ± 0.25 | 2.96 ± 0.1 | – | 3.14 ± 0.093
KKFIEISDVKIQVAAFI [PRP8] | 2.84 ± 0.058 | 2.54 ± 0.052 | 2.65 ± 0.048 | 2.55 ± 0.042
KKFVSQIQKNVDLLQFP [POP3] | 2.65 ± 0.064 | 2.23 ± 0.073 | 3.34 ± 0.065 | 2.64 ± 0.053
KKGEYARFKSKDERDTW [SMC3] | – | 3.23 ± 0.17 | 2.69 ± 0.098 | 3.32 ± 0.17
KKGKSSDKDATTDGKND [RPN1] | – | 3.28 ± 0.2 | 3.44 ± 0.16 | 3.52 ± 0.2
KKHTKKFKRHHSDRYHR [RPL32] | 2.88 ± 0.038 | 2.99 ± 0.034 | 2.87 ± 0.029 | 2.971 ± 0.025
KKKVYTTPKKIKHKHKK [RPS31] | 3.38 ± 0.16 | 2.86 ± 0.2 | – | –

Sequence | protein stability index (doa10∆) | protein stability index (pdr5∆) | protein stability index (san1∆) | protein stability index (ubr1∆)
KKMTKKAKRSNLYTPKA [PRP8] | 2.9 ± 0.059 | 2.19 ± 0.038 | 2.39 ± 0.059 | 2.3 ± 0.031
KKNNAASELANPYSSYV [YAR002W/NUP60] | 2.99 ± 0.062 | 3.02 ± 0.047 | 2.98 ± 0.047 | 2.83 ± 0.054
KKNNKIKESSKKIKGKS [SRP21] | 3.07 ± 0.1 | – | 3.26 ± 0.052 | –
KKPGKIAKPNTANAKHT [SMB1] | 2.87 ± 0.071 | 2.73 ± 0.091 | 2.75 ± 0.089 | 2.85 ± 0.066
KKRNMPLQSIPEIGNRK [SWI1] | 2.62 ± 0.041 | 2.67 ± 0.037 | 2.81 ± 0.038 | 2.63 ± 0.033
KKRSKVRKETYSSYIYK [HTB2] | 3.15 ± 0.074 | 3.33 ± 0.066 | 3.14 ± 0.071 | 3.38 ± 0.052
KKVASANATAAESDVAK [RPL16A] | 3.08 ± 0.054 | 3.04 ± 0.065 | 3.1 ± 0.036 | 3.02 ± 0.038
KKVLEIDFFKTDDSFED [BRN1] | 2.09 ± 0.041 | 2.08 ± 0.055 | 2.46 ± 0.058 | 2.18 ± 0.042
KLAFGLTKLNEDDLVGV [TAF14] | 2.94 ± 0.092 | 3.15 ± 0.072 | 3.25 ± 0.054 | 3 ± 0.057
KLEEESKRGNDKKHFNN [RPC53] | 3.34 ± 0.098 | 3.15 ± 0.094 | 3.17 ± 0.094 | 3.28 ± 0.08
KLEGSENSEPPALESSP [SNF2] | 3.09 ± 0.073 | 2.97 ± 0.064 | 3.28 ± 0.071 | 3.26 ± 0.057
KLFNRIVERETNWIIYP [CSN12] | 2.81 ± 0.19 | 3.48 ± 0.24 | 2.85 ± 0.21 | –
KLHHDLKLCLGDHSSVP [YMR129W/POM152] | 2.83 ± 0.058 | 3.09 ± 0.054 | 2.95 ± 0.053 | 2.96 ± 0.042
KLIEKKSAYANTEKDYK [SMC2] | 2.71 ± 0.057 | 2.59 ± 0.059 | 2.83 ± 0.053 | 2.88 ± 0.045
KLKHMVLDKMHARARGP [RET1] | 2.69 ± 0.094 | 2.84 ± 0.084 | 2.47 ± 0.067 | 2.65 ± 0.06
KLLFDHDELDMNECIAD [ESC2] | – | – | 1.03 ± 0.22 | –
KLLKIPKFISEALAFTS [YDL116W/NUP84] | 2.32 ± 0.093 | 2.46 ± 0.086 | 2.24 ± 0.1 | 2.75 ± 0.05
KLLKVCLTMFEDRNESV [ECM29] | 2.41 ± 0.14 | 1.99 ± 0.27 | 2.58 ± 0.078 | 2.66 ± 0.16
KLLSLLRSKTSAGRIES [SIR4] | 2.11 ± 0.082 | 2.17 ± 0.087 | 2.42 ± 0.15 | 2.36 ± 0.12
KLMDEDSVATVIEVIET [YJR042W/NUP85] | 2.85 ± 0.13 | 3.02 ± 0.16 | 2.51 ± 0.11 | 2.98 ± 0.15
KLNQKYDIVKFLTVSKL [GRR1] | 1.76 ± 0.037 | 1.99 ± 0.03 | 2.06 ± 0.052 | 2.04 ± 0.026
KLQENRTLLTEEIEPKL [SMC2] | 2.91 ± 0.2 | 3.29 ± 0.18 | 2.76 ± 0.15 | 3.19 ± 0.14
KLQGLYENIPIYATFLN [YDL116W/NUP84] | 1.32 ± 0.063 | 1.25 ± 0.058 | 1.22 ± 0.14 | 1.13 ± 0.059
KLQSWDKVSSCFPQYVN [NNF1] | 1.42 ± 0.099 | 1.94 ± 0.09 | 1.45 ± 0.15 | 2.68 ± 0.1
KLRDHEPDLESQISKAE [SMC4] | 2.07 ± 0.13 | 1.31 ± 0.21 | 3.16 ± 0.16 | –
KLSDIFLSKPSKALYPD [SNF2] | 2.53 ± 0.041 | 2.84 ± 0.049 | 2.61 ± 0.042 | 2.7 ± 0.041
